Laboratory results as given in US20060229240A1 (GARDELL ET AL, published 2006).
Positions of bridges follow the written chain, without caps; N, C: chain ends. Non-standard residues stand in square brackets, D forms with d. No end group written: not given here. hArg = N=C(N)NCCCC[C@H](N)C(=O)O; Aib = CC(C)(N)C(=O)O

T1: PTH/PTHrP receptor (P1R), wild-type, full-length (human, UniProt Q03431 27-593)
T1 construct: whole, on cells; For HKRK-B28 cells it says only 'full-length P1R', and that receptor is treated here as the same one; also called P1R-WT; wild-type P1R
T1 sequence (looked up): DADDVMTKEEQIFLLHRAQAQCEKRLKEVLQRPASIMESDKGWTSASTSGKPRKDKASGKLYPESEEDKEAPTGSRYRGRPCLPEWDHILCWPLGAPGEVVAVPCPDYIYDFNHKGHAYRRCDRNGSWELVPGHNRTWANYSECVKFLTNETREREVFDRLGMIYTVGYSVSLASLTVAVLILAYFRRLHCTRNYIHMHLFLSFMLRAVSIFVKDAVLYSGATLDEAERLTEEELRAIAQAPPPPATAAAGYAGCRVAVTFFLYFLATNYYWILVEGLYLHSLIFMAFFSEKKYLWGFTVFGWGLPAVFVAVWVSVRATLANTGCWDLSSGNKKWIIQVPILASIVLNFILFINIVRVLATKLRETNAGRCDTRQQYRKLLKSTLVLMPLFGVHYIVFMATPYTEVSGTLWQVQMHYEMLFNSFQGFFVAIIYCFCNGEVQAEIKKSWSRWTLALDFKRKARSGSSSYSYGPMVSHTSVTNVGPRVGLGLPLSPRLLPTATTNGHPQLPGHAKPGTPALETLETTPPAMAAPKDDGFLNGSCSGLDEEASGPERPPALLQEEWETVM

T2: P1R-DelNt (truncated human P1R deleted for residues 24-181) (human, UniProt Q03431 182-593)
T2 sequence (looked up): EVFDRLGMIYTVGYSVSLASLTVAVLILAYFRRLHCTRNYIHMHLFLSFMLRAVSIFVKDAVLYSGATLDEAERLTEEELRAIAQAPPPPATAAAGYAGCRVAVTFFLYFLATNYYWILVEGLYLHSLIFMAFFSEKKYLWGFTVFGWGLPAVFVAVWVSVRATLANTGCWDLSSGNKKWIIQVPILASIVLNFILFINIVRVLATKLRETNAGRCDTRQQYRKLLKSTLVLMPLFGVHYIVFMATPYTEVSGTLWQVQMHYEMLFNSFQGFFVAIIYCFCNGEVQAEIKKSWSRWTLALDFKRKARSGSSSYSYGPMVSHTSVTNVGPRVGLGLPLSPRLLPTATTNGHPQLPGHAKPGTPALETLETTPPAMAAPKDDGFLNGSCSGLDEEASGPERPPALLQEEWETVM

B1: PTH(1-34) ([Tyr^34]hPTH(1-34)amide) (peptide)
peptide: SVSEIQLMHNLGKHLNSMERVEWLRKKLQDVHNY-NH2
notes: Human PTH(1-34) analog with Tyr at 34; also called [Tyr^34]hPTH(1-34)NH2; PTH(1-34) scaffold peptide
B2: [Ala^6,10]PTH(1-34) (peptide)
peptide: SVSEIALMHALGKHLNSMERVEWLRKKLQDVHNY-NH2
notes: Double Ala analog of [Tyr^34]hPTH(1-34)amide
B3: [Ala^6]PTH(1-34) (peptide)
peptide: SVSEIALMHNLGKHLNSMERVEWLRKKLQDVHNY-NH2
notes: Gln6->Ala analog of [Tyr^34]hPTH(1-34)amide
B4: [Aib^1,3, Ala^6,10]PTH(1-14) (peptide)
peptide: [Aib]V[Aib]EIALMHA[hArg]AKW-NH2
modifications: N-terminus assumed
SMILES: CC[C@H](C)[C@H](NC(=O)[C@H](CCC(=O)O)NC(=O)C(C)(C)NC(=O)[C@@H](NC(=O)C(C)(C)N)C(C)C)C(=O)N[C@@H](C)C(=O)N[C@@H](CC(C)C)C(=O)N[C@@H](CCSC)C(=O)N[C@@H](Cc1c[nH]cn1)C(=O)N[C@@H](C)C(=O)N[C@@H](CCCCNC(=N)N)C(=O)N[C@@H](C)C(=O)N[C@@H](CCCCN)C(=O)N[C@@H](Cc1c[nH]c2ccccc12)C(N)=O
B5: [Aib^1,3, Ala^10]PTH(1-14) (peptide)
peptide: [Aib]V[Aib]EIQLMHA[hArg]AKW-NH2
modifications: N-terminus assumed
SMILES: CC[C@H](C)[C@H](NC(=O)[C@H](CCC(=O)O)NC(=O)C(C)(C)NC(=O)[C@@H](NC(=O)C(C)(C)N)C(C)C)C(=O)N[C@@H](CCC(N)=O)C(=O)N[C@@H](CC(C)C)C(=O)N[C@@H](CCSC)C(=O)N[C@@H](Cc1c[nH]cn1)C(=O)N[C@@H](C)C(=O)N[C@@H](CCCCNC(=N)N)C(=O)N[C@@H](C)C(=O)N[C@@H](CCCCN)C(=O)N[C@@H](Cc1c[nH]c2ccccc12)C(N)=O
B6: [Aib^1,3, Ala^6]PTH(1-14) (peptide)
peptide: [Aib]V[Aib]EIALMHQ[hArg]AKW-NH2
modifications: N-terminus assumed
SMILES: CC[C@H](C)[C@H](NC(=O)[C@H](CCC(=O)O)NC(=O)C(C)(C)NC(=O)[C@@H](NC(=O)C(C)(C)N)C(C)C)C(=O)N[C@@H](C)C(=O)N[C@@H](CC(C)C)C(=O)N[C@@H](CCSC)C(=O)N[C@@H](Cc1c[nH]cn1)C(=O)N[C@@H](CCC(N)=O)C(=O)N[C@@H](CCCCNC(=N)N)C(=O)N[C@@H](C)C(=O)N[C@@H](CCCCN)C(=O)N[C@@H](Cc1c[nH]c2ccccc12)C(N)=O
B7: [M]PTH(1-14) ([Ala^1,3,12,Gln^10,Har^11,Trp^14]PTH(1-14)amide; AlaValAlaGluIleGlnLeuMetHisGlnHarAlaLysTrp-amide) (peptide)
peptide: AVAEIQLMHQ[hArg]AKW-NH2
modifications: N-terminus assumed
SMILES: CC[C@H](C)[C@H](NC(=O)[C@H](CCC(=O)O)NC(=O)[C@H](C)NC(=O)[C@@H](NC(=O)[C@H](C)N)C(C)C)C(=O)N[C@@H](CCC(N)=O)C(=O)N[C@@H](CC(C)C)C(=O)N[C@@H](CCSC)C(=O)N[C@@H](Cc1c[nH]cn1)C(=O)N[C@@H](CCC(N)=O)C(=O)N[C@@H](CCCCNC(=N)N)C(=O)N[C@@H](C)C(=O)N[C@@H](CCCCN)C(=O)N[C@@H](Cc1c[nH]c2ccccc12)C(N)=O
B8: [(Glu^6, Lys^10)lac.]PTH(1-14), cyclized via a 6-10 lactam bridge (peptide)
peptide: AVAEIELMHK[hArg]AKW-NH2
modifications: lactam 6-10; N-terminus assumed
SMILES: CC[C@H](C)[C@H](NC(=O)[C@H](CCC(=O)O)NC(=O)[C@H](C)NC(=O)[C@@H](NC(=O)[C@H](C)N)C(C)C)C(=O)N[C@H]1CCC(=O)NCCCC[C@@H](C(=O)N[C@@H](CCCCNC(=N)N)C(=O)N[C@@H](C)C(=O)N[C@@H](CCCCN)C(=O)N[C@@H](Cc2c[nH]c3ccccc23)C(N)=O)NC(=O)[C@H](Cc2c[nH]cn2)NC(=O)[C@H](CCSC)NC(=O)[C@H](CC(C)C)NC1=O
B9: [Glu^6, Lys^10]PTH(1-14) (linear) (peptide)
peptide: AVAEIELMHK[hArg]AKW-NH2
modifications: N-terminus assumed
SMILES: CC[C@H](C)[C@H](NC(=O)[C@H](CCC(=O)O)NC(=O)[C@H](C)NC(=O)[C@@H](NC(=O)[C@H](C)N)C(C)C)C(=O)N[C@@H](CCC(=O)O)C(=O)N[C@@H](CC(C)C)C(=O)N[C@@H](CCSC)C(=O)N[C@@H](Cc1c[nH]cn1)C(=O)N[C@@H](CCCCN)C(=O)N[C@@H](CCCCNC(=N)N)C(=O)N[C@@H](C)C(=O)N[C@@H](CCCCN)C(=O)N[C@@H](Cc1c[nH]c2ccccc12)C(N)=O
B10: [Lys^6, Glu^10]PTH(1-14) (peptide)
peptide: AVAEIKLMHE[hArg]AKW-NH2
modifications: N-terminus assumed
SMILES: CC[C@H](C)[C@H](NC(=O)[C@H](CCC(=O)O)NC(=O)[C@H](C)NC(=O)[C@@H](NC(=O)[C@H](C)N)C(C)C)C(=O)N[C@@H](CCCCN)C(=O)N[C@@H](CC(C)C)C(=O)N[C@@H](CCSC)C(=O)N[C@@H](Cc1c[nH]cn1)C(=O)N[C@@H](CCC(=O)O)C(=O)N[C@@H](CCCCNC(=N)N)C(=O)N[C@@H](C)C(=O)N[C@@H](CCCCN)C(=O)N[C@@H](Cc1c[nH]c2ccccc12)C(N)=O

The binders below were run against T1, PTH/PTHrP receptor (P1R), wild-type, … (assay: competition with 125I-[Ala3,12,Gln10,Har11,Trp14,Arg19,Tyr21]PTH(1-21)-amide tracer on HKRK-B28 cells expressing P1R).
Procedure: Competition Binding. Binding reactions were performed with […] cells or in COS-7 cells in 24-well plates. The cells were rinsed with 0.5 mL of binding buffer, and then treated successively with 100 μL binding buffer, 100 μL of binding buffer containing various amounts of unlabeled competitor ligand, and 100 μL of binding buffer containing ca. 100,000 cpm of ¹²⁵I-[M]PTH(1-21)(SEQ. ID. NO. 16) or ¹²⁵I-[Aib^{1,3},M]PTH(1-21)(SEQ. ID. NO. 17) (ca. 26 fmol; final volume=300 μL). Incubations were 4 to 6 h at 4° C., at which time near equilibrium conditions were attained. Cells were then placed on ice, the binding medium was removed, and the monolayer was rinsed three times with 0.5 mL of cold binding buffer. The cells were subsequently lysed with 0.5 mL 5N NaOH and counted for radioactivity. For each tracer and in each experiment, the non-specific binding was determined as the radioactivity that bound in the presence of the same unlabeled peptide at a concentration of 1 μM, and was ˜1% of total radioactivity added for each tracer. The maximum specific binding (B₀) was the total radioactivity bound in the absence of competing ligand, corrected for nonspecific binding, and for each tracer, ranged from 8% to 20% of the total radioactivity added. Nonlinear regression was used to calculate binding IC₅₀ values (see below). Scatchard transformations of homologous competition binding data derived from studies with 26 fmol of ¹²⁵I-[Aib^{1,3},M]PTH(1-21) (SEQ. ID. NO. 17) were employed for estimations of apparent equilibrium dissociation constant (kDapps) and total number of ligand binding sites (Bₘₐₓ), assuming a single class of binding sites and equal affinities of the iodinated and non iodinated ligand.
The peptide PTH(1-34) ([Tyr³⁴]bPTH(1-34)NH₂) (SEQ. ID. NO. 10) and analogs containing substitutions at positions 6 and/or 10 in place of Gln and Asn, respectively, were evaluated in HKRK-B28 cells for the capacity to stimulate cAMP accumulation, and to inhibit the binding of ¹²⁵I-[Ala^{3,12}, Gln¹⁰, Har¹¹, Trp¹⁴,Arg¹⁹, Tyr²¹]PTH(1-21)-amide (SEQ. ID. NO. 30) tracer radioligand.

| IC50 [µM] | Binder |
| --- | --- |
| 6 | B1 |
| 3.9 | B2 |
| 4.5 | B3 |

The binders below were run against T2, P1R-DelNt (truncated human P1R deleted …) (assay: cell-based or functional assay).

| cAMP EC50 [µM] | cAMP Emax (%) | Binder |
| --- | --- | --- |
| 320 | 14 | AVAEIALMHQR-NH2 [[Ala^6]PTH(1-11)] |
| 170 | 42 | AVAEIALMHAR-NH2 [[Ala^6, Ala^10]PTH(1-11)] |
| 39 | 79 | AVAEIQLMHAR-NH2 [[Ala^10]PTH(1-11)] |
| 0.024 | 100 | B4 |
| 0.081 | 104 | B5 |
| 0.146 | 101 | B6 |

Each binder was assayed against T1, PTH/PTHrP receptor (P1R), wild-type, … (assay: cell-based or functional assay).

| cAMP EC50 [µM] | cAMP Emax (%) | Binder |
| --- | --- | --- |
| 0.12 | 100 | B7 |
| 27 | 52 | B8 |
| 40 | 52 | B9 |
| 130 | 37 | B10 |

Molecular target: T2, P1R-DelNt (truncated human P1R deleted …)
Test: cell-based or functional assay
Remark: another data set of the same source

| cAMP Emax (%) | cAMP EC50 [µM] | Binder |
| --- | --- | --- |
| 44 |  | B1 |
| 44 | 19 | B2 |
| 4.5 | > 100 | B3 |

Molecular target: T1, PTH/PTHrP receptor (P1R), wild-type, …
Test: cell-based or functional assay
Remark: another data set of the same source

| cAMP EC50 [µM] | cAMP Emax (%) | Binder |
| --- | --- | --- |
| 0.27 | 100 | B1 |
| 0.3 | 121 | B2 |
| 0.17 | 104 | B3 |

Molecular target: T1, PTH/PTHrP receptor (P1R), wild-type, …
Test: cell-based or functional assay
Remark: another data set of the same source

| cAMP EC50 [µM] | cAMP Emax (%) | Binder |
| --- | --- | --- |
| 330 | 26 | AVAEIALMHQR-NH2 [[Ala^6]PTH(1-11)] |
| 160 | 41 | AVAEIALMHAR-NH2 [[Ala^6, Ala^10]PTH(1-11)] |
| 11 | 88 | AVAEIQLMHAR-NH2 [[Ala^10]PTH(1-11)] |

Molecular target: T1, PTH/PTHrP receptor (P1R), wild-type, …
Test: cell-based or functional assay
Remark: another data set of the same source

| cAMP EC50 [µM] | cAMP Emax (%) | Binder |
| --- | --- | --- |
| 1.9 | 100 | B1 |
| 2.2 | 107 | B2 |
| 4.9 | 105 | B3 |
